The source of these data is US6951919 (MOCHIDA PHARMACEUTICAL, dated 2005).

Common to all, as to test: cell-based or functional assay
The target in test [1] is T1, Fas on mouse W4 cells (mouse WR19L cell transformants that overexpress Fas) (UniProt P25446 22-327, limits assumed).
T1 sequence (looked up): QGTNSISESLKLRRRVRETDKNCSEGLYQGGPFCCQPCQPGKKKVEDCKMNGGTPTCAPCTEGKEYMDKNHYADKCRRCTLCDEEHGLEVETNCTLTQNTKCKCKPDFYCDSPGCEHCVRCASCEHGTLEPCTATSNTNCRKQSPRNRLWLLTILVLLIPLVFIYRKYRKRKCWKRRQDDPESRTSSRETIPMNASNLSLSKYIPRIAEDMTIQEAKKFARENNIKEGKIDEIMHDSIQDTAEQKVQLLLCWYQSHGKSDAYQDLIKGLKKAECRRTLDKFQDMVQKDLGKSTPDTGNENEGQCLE

In test [2] the target is T2, Fas expressed endogenously on human Jurkat cells (human, UniProt P25445 26-335).
T2 sequence (looked up): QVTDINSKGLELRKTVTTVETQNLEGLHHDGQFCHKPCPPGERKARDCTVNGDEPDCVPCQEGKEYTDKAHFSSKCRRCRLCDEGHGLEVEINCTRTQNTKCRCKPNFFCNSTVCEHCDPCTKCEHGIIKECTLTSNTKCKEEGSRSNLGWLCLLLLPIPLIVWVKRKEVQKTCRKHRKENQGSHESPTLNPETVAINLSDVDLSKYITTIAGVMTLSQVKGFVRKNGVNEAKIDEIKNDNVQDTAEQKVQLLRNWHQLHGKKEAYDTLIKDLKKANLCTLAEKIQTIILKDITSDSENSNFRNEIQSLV

For test [3], the target named is Fas expressed endogenously on mouse primary hepatocytes (mouse), P25446.

Bounds are passed on as bounds.

B1: D4 deletion mutant of human FasL (amino acids 8-69 and 111-133 deleted) (ligand)
chain: MQQPFNYPLKKRGNHSTGLCLLVMFFMVLVALVGLGLGMFQLFHLQKEPSPPPEKKELRKVAHLTGKSNSRSMPLEWEDTYGIVLLSGVKYKKGGLVINETGLYFVYSKVYFRGQSCNNLPLSHKVYMRNSKYPQDLVMMEGKMMSYCTTGQMWARSSYLGAVFNLTSADHLYVNVSELSLVNFEESQTFFGLYKL
For the molecule B1, the “specific killing of W4 cells at an E/T ratio of 5.0, 51Cr-release” value in test [1] is approximately 50%. In addition, in test [2], the “specific killing of Jurkat cells at an E/T ratio of 3.0, 51Cr-release” value is not below 20%.

B2: human soluble Fas ligand, P48023 130-281 (ligand)
chain: QIGHPSPPPEKKELRKVAHLTGKSNSRSMPLEWEDTYGIVLLSGVKYKKGGLVINETGLYFVYSKVYFRGQSCNNLPLSHKVYMRNSKYPQDLVMMEGKMMSYCTTGQMWARSSYLGAVFNLTSADHLYVNVSELSLVNFEESQTFFGLYKL
Regarding B2, in test [3], the concentration of soluble FasL that blocks half of the cytotoxic activity of membrane-bound FasL (D4 mutant) on mouse hepatocytes at E/T 2.0, GOT release turned out to be 0.4 µg/mL.
